In patent US20220251215A1 one finds Max Fold (RLU), NFAT-luciferase and EC50 (#of APC cells), NFAT-luciferase data, which are given here for 4 molecules.

The target of experiment [1] is HLA.A2 with NY-ESO-1: 157-165 on IM9 cells. The experiment can be described thus: cell-based or functional assay.
For experiment [2], the target named is HLA.A2/hB2M/NY-ESO-1: 157-165 WT on 3T3 cells (human) (UniProt P04439). The experiment can be described thus: cell-based or functional assay.

B1: NY-ESO CAR-T 24959N VL-VH (protein, part only; not given: scFv linker, hinge, signalling domains, not shown: large carriers)
chain, part: DIQMTQSPSSLSASVGDRVTITCQASQDISNYLKWYQQKPGKAPKILIHDASNLEIGVPSRFSGSGAGTDFIFTISSLQPEDIGTYYCQQYDNLPITFGQGTRLEIKQLQLLESGPGLVKPSETLSLICTVSGGSIRGSSYYWGWIRQPPEKGLEWIGSIYSSGSTYYNPSLKSRVTISADTSKNQFSLKLSSVTAADTAVYYCARHGGITAVQLEFDPWGQGTLVTVSS
Consider B1, for which the Max Fold (RLU), NFAT-luciferase in experiment [1] came out at 0.8 fold; in experiment [2], 28.6 fold. In addition, in experiment [2], the EC50 (#of APC cells), NFAT-luciferase came out at 24000 APC cells.

B2: NY-ESO CAR-T 24958N VH-VL (protein, part only; not given: scFv linker, hinge, signalling domains, not shown: large carriers)
chain, part: QVQLQESGPGLVKPSQTLSLTCTVSGGSIISDGYYWSWIRQHPGKGLEWIGYVDYSGNTYYNPSLKSRIIMSVDTSKNQFSLKLTSVTAADTAVYFCVREGPLRDAFEIWGQGTMVTVSSDIQMTQSPSSLSASVGDRVTITCRTSQSISRYLNWYQQKPGKAPKLLIFAASSLQSGVPSRFSGSGSGADFTLTISSLQPEDFATYYCQQSYSTPPITFGQGTRLEIK
Consider B2, for which the results for the Max Fold (RLU), NFAT-luciferase in experiment [1] and in experiment [2] were 1 fold and 6.7 fold, respectively. The EC50 (#of APC cells), NFAT-luciferase in experiment [2] was 24500 APC cells.

B3: NY-ESO CAR-T 24958N VL-VH (protein, part only; not given: scFv linker, hinge, signalling domains, not shown: large carriers)
chain, part: DIQMTQSPSSLSASVGDRVTITCRTSQSISRYLNWYQQKPGKAPKLLIFAASSLQSGVPSRFSGSGSGADFTLTISSLQPEDFATYYCQQSYSTPPITFGQGTRLEIKQVQLQESGPGLVKPSQTLSLTCTVSGGSIISDGYYWSWIRQHPGKGLEWIGYVDYSGNTYYNPSLKSRIIMSVDTSKNQFSLKLTSVTAADTAVYFCVREGPLRDAFEIWGQGTMVTVSS
Molecule B3 yielded a Max Fold (RLU), NFAT-luciferase in experiment [1] of 0.9 fold. In experiment [2], this molecule returned an EC50 (#of APC cells), NFAT-luciferase of 19900 APC cells and a Max Fold (RLU), NFAT-luciferase of 6.4 fold.

B4: NY-ESO CAR-T 24959N VH-VL (protein, part only; not given: scFv linker, hinge, signalling domains, not shown: large carriers)
chain, part: QLQLLESGPGLVKPSETLSLICTVSGGSIRGSSYYWGWIRQPPEKGLEWIGSIYSSGSTYYNPSLKSRVTISADTSKNQFSLKLSSVTAADTAVYYCARHGGITAVQLEFDPWGQGTLVTVSSDIQMTQSPSSLSASVGDRVTITCQASQDISNYLKWYQQKPGKAPKILIHDASNLEIGVPSRFSGSGAGTDFIFTISSLQPEDIGTYYCQQYDNLPITFGQGTRLEIK
In the case of B4, the Max Fold (RLU), NFAT-luciferase in experiment [1] stood at 1.1 fold; in experiment [2], 13.3 fold. Moreover, the EC50 (#of APC cells), NFAT-luciferase in experiment [2] was 14200 APC cells.
